Assay results from publication PMC10786891, “Massively parallel profiling of RNA-targeting CRISPR-Cas13d”.

T1: EsCas13d, nuclease-dead (Eubacterium siraeum, UniProt B0MS50, R295A;H300A;R849A;H854A)
T1 sequence: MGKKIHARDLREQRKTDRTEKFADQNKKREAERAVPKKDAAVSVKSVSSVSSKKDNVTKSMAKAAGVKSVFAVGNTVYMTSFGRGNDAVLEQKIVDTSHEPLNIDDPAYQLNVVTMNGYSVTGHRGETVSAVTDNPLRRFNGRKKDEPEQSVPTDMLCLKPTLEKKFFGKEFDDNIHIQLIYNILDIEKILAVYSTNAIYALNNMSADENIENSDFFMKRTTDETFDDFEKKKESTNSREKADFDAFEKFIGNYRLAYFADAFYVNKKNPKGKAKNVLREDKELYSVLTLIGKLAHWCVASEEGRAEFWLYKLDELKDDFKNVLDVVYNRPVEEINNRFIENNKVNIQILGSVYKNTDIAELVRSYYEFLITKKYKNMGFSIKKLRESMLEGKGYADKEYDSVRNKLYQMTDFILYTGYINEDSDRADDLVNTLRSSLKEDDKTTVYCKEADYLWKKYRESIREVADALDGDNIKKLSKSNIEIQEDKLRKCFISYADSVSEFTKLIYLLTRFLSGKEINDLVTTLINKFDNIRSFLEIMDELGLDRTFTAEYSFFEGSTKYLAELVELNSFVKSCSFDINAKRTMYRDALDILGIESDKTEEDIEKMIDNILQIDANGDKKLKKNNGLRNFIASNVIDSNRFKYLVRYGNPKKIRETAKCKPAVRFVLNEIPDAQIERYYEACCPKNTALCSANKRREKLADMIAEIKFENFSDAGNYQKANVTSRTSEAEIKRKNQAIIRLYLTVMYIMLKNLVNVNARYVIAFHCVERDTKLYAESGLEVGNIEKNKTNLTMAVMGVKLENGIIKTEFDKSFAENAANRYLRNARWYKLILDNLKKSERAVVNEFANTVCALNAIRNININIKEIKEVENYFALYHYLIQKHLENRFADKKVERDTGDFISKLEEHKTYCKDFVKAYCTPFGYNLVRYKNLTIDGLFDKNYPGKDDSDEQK


Biological target: T1, EsCas13d, nuclease-dead
Assay: crRNA (strand 1, pre-loaded); Mg2+; 40 mM Tris-HCl pH 7.5, 150 mM NaCl, 6 mM MgCl2, 1 mM DTT, 0.1% Tween-20, 0.2 mg/ml BSA; 25 C; 10 min per concentration, then washed
Conditions: tags: His6-TwinStrep-SUMO cleaved; N-terminal SNAP kept (SNAP-Surface 488); label: 3' end held by stalled T7 RNA polymerase

Row | Binder | Kd [nM]
1 | target 1 insC 3' of 10,insU 3' of 5 (mixed) RNA 1: CACCCGUGCAAAAAUGCAGGGGUCUAAAACUGAGCGGAUAACCUCUCUAUGG RNA 2: GGGAAUGGAUCCACAUCUACGAAUUCGUACCAUAGAGAGGUUCAUCCGUCUCACCGAGAUCGGAAGAGCACACGU | 14 ± 2.4
2 | target 1 C7A,U10A (mixed) RNA 1: CACCCGUGCAAAAAUGCAGGGGUCUAAAACUGAGCGGAUAACCUCUCUAUGG RNA 2: GGGAAUGGAUCCACAUCUACGAAUUCGUACCAUAGAGAGGUAAUACGCUCACCGAGAUCGGAAGAGCACACGU | 8.48 ± 0.31
3 | target 1 A1C,A9G (mixed) RNA 1: CACCCGUGCAAAAAUGCAGGGGUCUAAAACUGAGCGGAUAACCUCUCUAUGG RNA 2: GGGAAUGGAUCCACAUCUACGAAUUCGUACCAUAGAGAGGUUGUCCGCUCCCCGAGAUCGGAAGAGCACACGU | 21.2 ± 3.4
4 | target 1 A1G,C4U (mixed) RNA 1: CACCCGUGCAAAAAUGCAGGGGUCUAAAACUGAGCGGAUAACCUCUCUAUGG RNA 2: GGGAAUGGAUCCACAUCUACGAAUUCGUACCAUAGAGAGGUUAUCCGUUCGCCGAGAUCGGAAGAGCACACGU | 31 ± 5
5 | target 1 G5C,G15A (mixed) RNA 1: CACCCGUGCAAAAAUGCAGGGGUCUAAAACUGAGCGGAUAACCUCUCUAUGG RNA 2: GGGAAUGGAUCCACAUCUACGAAUUCGUACCAUAGAAAGGUUAUCCCCUCACCGAGAUCGGAAGAGCACACGU | 19.9 ± 1.8
6 | target 1 complement block 4-11 (mixed) RNA 1: CACCCGUGCAAAAAUGCAGGGGUCUAAAACUGAGCGGAUAACCUCUCUAUGG RNA 2: GGGAAUGGAUCCACAUCUACGAAUUCGUACCAUAGAGAGGAAUAGGCGUCACCGAGAUCGGAAGAGCACACGU | 12.4 ± 0.6
7 | target 1 del2,del14 (mixed) RNA 1: CACCCGUGCAAAAAUGCAGGGGUCUAAAACUGAGCGGAUAACCUCUCUAUGG RNA 2: GGGAAUGGAUCCACAUCUACGAAUUCGUACCAUAGAGGGUUAUCCGCUACCGAGAUCGGAAGAGCACACGU | 64 ± 11
8 | target 1 insC 3' of 9,insC 3' of 9 (mixed) RNA 1: CACCCGUGCAAAAAUGCAGGGGUCUAAAACUGAGCGGAUAACCUCUCUAUGG RNA 2: GGGAAUGGAUCCACAUCUACGAAUUCGUACCAUAGAGAGGUUACCUCCGCUCACCGAGAUCGGAAGAGCACACGU | 10.7 ± 0.7
9 | target 1 A1U,A9G (mixed) RNA 1: CACCCGUGCAAAAAUGCAGGGGUCUAAAACUGAGCGGAUAACCUCUCUAUGG RNA 2: GGGAAUGGAUCCACAUCUACGAAUUCGUACCAUAGAGAGGUUGUCCGCUCUCCGAGAUCGGAAGAGCACACGU | 13.1 ± 1.3
10 | target 1 insU 3' of 20,insG 3' of 10 (mixed) RNA 1: CACCCGUGCAAAAAUGCAGGGGUCUAAAACUGAGCGGAUAACCUCUCUAUGG RNA 2: GGGAAUGGAUCCACAUCUACGAAUUCGUACCAUUAGAGAGGUUGAUCCGCUCACCGAGAUCGGAAGAGCACACGU | 29 ± 6
11 | target 1 insC 3' of 20,insC 3' of 5 (mixed) RNA 1: CACCCGUGCAAAAAUGCAGGGGUCUAAAACUGAGCGGAUAACCUCUCUAUGG RNA 2: GGGAAUGGAUCCACAUCUACGAAUUCGUACCACUAGAGAGGUUAUCCGCCUCACCGAGAUCGGAAGAGCACACGU | 5.23 ± 0.33
12 | target 1 C7U,U19G (mixed) RNA 1: CACCCGUGCAAAAAUGCAGGGGUCUAAAACUGAGCGGAUAACCUCUCUAUGG RNA 2: GGGAAUGGAUCCACAUCUACGAAUUCGUACCAGAGAGAGGUUAUUCGCUCACCGAGAUCGGAAGAGCACACGU | 57 ± 7
13 | target 1 A9U,U10G (mixed) RNA 1: CACCCGUGCAAAAAUGCAGGGGUCUAAAACUGAGCGGAUAACCUCUCUAUGG RNA 2: GGGAAUGGAUCCACAUCUACGAAUUCGUACCAUAGAGAGGUGUUCCGCUCACCGAGAUCGGAAGAGCACACGU | 21.7 ± 2.1
14 | target 1 complement block 2-8 (mixed) RNA 1: CACCCGUGCAAAAAUGCAGGGGUCUAAAACUGAGCGGAUAACCUCUCUAUGG RNA 2: GGGAAUGGAUCCACAUCUACGAAUUCGUACCAUAGAGAGGUUAAGGCGAGACCGAGAUCGGAAGAGCACACGU | 10.5 ± 0.5
15 | target 1 insC 3' of 16,insG 3' of 8 (mixed) RNA 1: CACCCGUGCAAAAAUGCAGGGGUCUAAAACUGAGCGGAUAACCUCUCUAUGG RNA 2: GGGAAUGGAUCCACAUCUACGAAUUCGUACCAUAGACGAGGUUAUGCCGCUCACCGAGAUCGGAAGAGCACACGU | 56 ± 13
16 | target 1 C2G,G5A (mixed) RNA 1: CACCCGUGCAAAAAUGCAGGGGUCUAAAACUGAGCGGAUAACCUCUCUAUGG RNA 2: GGGAAUGGAUCCACAUCUACGAAUUCGUACCAUAGAGAGGUUAUCCACUGACCGAGAUCGGAAGAGCACACGU | 35 ± 5
17 | target 1 insA 3' of 19,insU 3' of 4 (mixed) RNA 1: CACCCGUGCAAAAAUGCAGGGGUCUAAAACUGAGCGGAUAACCUCUCUAUGG RNA 2: GGGAAUGGAUCCACAUCUACGAAUUCGUACCAUAAGAGAGGUUAUCCGCUUCACCGAGAUCGGAAGAGCACACGU | 17.9 ± 0.9
18 | target 1 insA 3' of 22,insA 3' of 10 (mixed) RNA 1: CACCCGUGCAAAAAUGCAGGGGUCUAAAACUGAGCGGAUAACCUCUCUAUGG RNA 2: GGGAAUGGAUCCACAUCUACGAAUUCGUACACAUAGAGAGGUUAAUCCGCUCACCGAGAUCGGAAGAGCACACGU | 14.6 ± 1
19 | target 1 insC 3' of 18,insU 3' of 9 (mixed) RNA 1: CACCCGUGCAAAAAUGCAGGGGUCUAAAACUGAGCGGAUAACCUCUCUAUGG RNA 2: GGGAAUGGAUCCACAUCUACGAAUUCGUACCAUACGAGAGGUUAUUCCGCUCACCGAGAUCGGAAGAGCACACGU | 51 ± 11
20 | target 1 insC 3' of 13,insC 3' of 10 (mixed) RNA 1: CACCCGUGCAAAAAUGCAGGGGUCUAAAACUGAGCGGAUAACCUCUCUAUGG RNA 2: GGGAAUGGAUCCACAUCUACGAAUUCGUACCAUAGAGAGCGUUCAUCCGCUCACCGAGAUCGGAAGAGCACACGU | 12.9 ± 1.3
21 | target 1 insA 3' of 15,insA 3' of 8 (mixed) RNA 1: CACCCGUGCAAAAAUGCAGGGGUCUAAAACUGAGCGGAUAACCUCUCUAUGG RNA 2: GGGAAUGGAUCCACAUCUACGAAUUCGUACCAUAGAGAAGGUUAUACCGCUCACCGAGAUCGGAAGAGCACACGU | 7.4 ± 0.4
22 | target 1 A1C,C4U (mixed) RNA 1: CACCCGUGCAAAAAUGCAGGGGUCUAAAACUGAGCGGAUAACCUCUCUAUGG RNA 2: GGGAAUGGAUCCACAUCUACGAAUUCGUACCAUAGAGAGGUUAUCCGUUCCCCGAGAUCGGAAGAGCACACGU | 9.8 ± 1.2
23 | target 1 insC 3' of 14,insC 3' of 14 (mixed) RNA 1: CACCCGUGCAAAAAUGCAGGGGUCUAAAACUGAGCGGAUAACCUCUCUAUGG RNA 2: GGGAAUGGAUCCACAUCUACGAAUUCGUACCAUAGAGACCGGUUAUCCGCUCACCGAGAUCGGAAGAGCACACGU | 42 ± 4
24 | target 1 U8C,C21A (mixed) RNA 1: CACCCGUGCAAAAAUGCAGGGGUCUAAAACUGAGCGGAUAACCUCUCUAUGG RNA 2: GGGAAUGGAUCCACAUCUACGAAUUCGUACAAUAGAGAGGUUACCCGCUCACCGAGAUCGGAAGAGCACACGU | 44 ± 5
25 | target 1 insU 3' of 6,insG 3' of 1 (mixed) RNA 1: CACCCGUGCAAAAAUGCAGGGGUCUAAAACUGAGCGGAUAACCUCUCUAUGG RNA 2: GGGAAUGGAUCCACAUCUACGAAUUCGUACCAUAGAGAGGUUAUCCUGCUCAGCCGAGAUCGGAAGAGCACACGU | 12.5 ± 0.8
26 | target 1 G13A,C21A (mixed) RNA 1: CACCCGUGCAAAAAUGCAGGGGUCUAAAACUGAGCGGAUAACCUCUCUAUGG RNA 2: GGGAAUGGAUCCACAUCUACGAAUUCGUACAAUAGAGAAGUUAUCCGCUCACCGAGAUCGGAAGAGCACACGU | 35 ± 4
27 | target 1 U3G,A18G (mixed) RNA 1: CACCCGUGCAAAAAUGCAGGGGUCUAAAACUGAGCGGAUAACCUCUCUAUGG RNA 2: GGGAAUGGAUCCACAUCUACGAAUUCGUACCAUGGAGAGGUUAUCCGCGCACCGAGAUCGGAAGAGCACACGU | 87 ± 23
28 | target 1 insC 3' of 18,insU 3' of 1 (mixed) RNA 1: CACCCGUGCAAAAAUGCAGGGGUCUAAAACUGAGCGGAUAACCUCUCUAUGG RNA 2: GGGAAUGGAUCCACAUCUACGAAUUCGUACCAUACGAGAGGUUAUCCGCUCAUCCGAGAUCGGAAGAGCACACGU | 30.7 ± 2.6
